From publication PMC9433323, “R-loop formation and conformational activation mechanisms of Cas9”

B1: 18-nt match checkpoint: λ1 sgRNA (3-stem loop) / TS / NTS (mixed)
RNA: GACGCAUAAAGAUGAGACGCGUUUUAGAGCUAGAAAUAGCAAGUUAAAAUAAGGCUAGUCCGUUAUCAACUUGAAAAAGUGGCACCGAGUCGGUGCUUUU
DNA 1: CGTGATTCCAGCGTCTCATCTTTATGCGAGTGTACTCG
DNA 2: CGAGTACACTATTGCGGGACGCTATTATTGGAATCACG
B2: 18-nt match catalytic: λ1 sgRNA (3-stem loop) / TS / NTS (mixed)
RNA: B1 RNA
DNA 1: CGTGATTCCAGCGTCTCATCTTTATGCGAGTGTACTCGTCTTGC
DNA 2: GCAAGACGAGTACACTCGCATAAAACGCTATTATTGGAATCACG

Legend:
SpCas9 wild type [1] = target: T1, SpCas9 wild type (Streptococcus pyogenes, UniProt Q99ZW2 1-1368); experiment: cryo-EM; 1 mM Mg2+; checkpoint state; SEC binding: 20 mM HEPES-KOH pH 7.5, 200 mM KCl, 2 mM MgCl2, room temperature, 371 pmol dCas9, 400 pmol sgRNA, 250 pmol DNA; crystal complex: 20 mM HEPES-KOH pH 7.5, 250 mM KCl, 1 mM DTT, crystals at 20 C; details: protein: recombinant; tags: His6-MBP-TEV tag removed by TEV protease; sgRNA strand 1; TS/NTS duplex with internal mismatched region; 18 nt guide-TS complementarity
T1 sequence (Q99ZW2 whole entry): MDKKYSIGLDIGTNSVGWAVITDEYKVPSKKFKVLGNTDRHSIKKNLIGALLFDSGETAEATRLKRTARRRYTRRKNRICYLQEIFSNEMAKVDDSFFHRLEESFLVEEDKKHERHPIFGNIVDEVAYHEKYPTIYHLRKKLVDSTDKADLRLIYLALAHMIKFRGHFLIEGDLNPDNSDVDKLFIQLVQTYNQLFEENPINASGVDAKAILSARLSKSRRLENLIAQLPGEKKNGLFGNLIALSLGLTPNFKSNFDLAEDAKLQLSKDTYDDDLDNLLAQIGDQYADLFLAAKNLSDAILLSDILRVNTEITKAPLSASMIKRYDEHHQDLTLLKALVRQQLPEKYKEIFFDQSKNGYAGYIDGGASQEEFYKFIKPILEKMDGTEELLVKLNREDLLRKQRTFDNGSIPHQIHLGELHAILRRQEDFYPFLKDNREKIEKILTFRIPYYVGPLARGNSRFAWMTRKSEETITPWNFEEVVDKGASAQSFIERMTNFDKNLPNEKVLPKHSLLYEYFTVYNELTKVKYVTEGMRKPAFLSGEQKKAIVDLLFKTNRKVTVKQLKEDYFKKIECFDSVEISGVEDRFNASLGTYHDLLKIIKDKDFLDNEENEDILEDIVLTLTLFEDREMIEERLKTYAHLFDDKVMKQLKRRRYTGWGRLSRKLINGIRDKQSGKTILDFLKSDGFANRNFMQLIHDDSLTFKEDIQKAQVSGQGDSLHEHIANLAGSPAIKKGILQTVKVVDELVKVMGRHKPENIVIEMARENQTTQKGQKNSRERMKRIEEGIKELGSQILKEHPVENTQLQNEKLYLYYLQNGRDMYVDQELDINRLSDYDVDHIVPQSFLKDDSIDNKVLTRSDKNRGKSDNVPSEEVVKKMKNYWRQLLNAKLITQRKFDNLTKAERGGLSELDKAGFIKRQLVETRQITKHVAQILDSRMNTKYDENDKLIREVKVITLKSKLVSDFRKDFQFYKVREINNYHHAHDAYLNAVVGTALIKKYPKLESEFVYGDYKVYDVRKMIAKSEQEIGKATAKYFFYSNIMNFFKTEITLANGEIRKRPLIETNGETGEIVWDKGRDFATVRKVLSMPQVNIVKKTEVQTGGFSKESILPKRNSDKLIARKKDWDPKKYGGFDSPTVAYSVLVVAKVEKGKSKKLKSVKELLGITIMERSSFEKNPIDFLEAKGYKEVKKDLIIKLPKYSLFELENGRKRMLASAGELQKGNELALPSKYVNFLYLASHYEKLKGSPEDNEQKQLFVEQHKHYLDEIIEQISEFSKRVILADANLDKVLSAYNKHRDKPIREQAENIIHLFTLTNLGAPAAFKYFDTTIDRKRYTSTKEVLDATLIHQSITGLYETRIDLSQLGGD

SpCas9 wild type [2] = target: T1, SpCas9 wild type; experiment: cryo-EM; 10 mM Mg2+; catalytically active state, TS and NTS cleaved; SEC binding: 20 mM HEPES-KOH pH 7.5, 200 mM KCl, 2 mM MgCl2, room temperature, 371 pmol dCas9, 400 pmol sgRNA, 250 pmol DNA; crystal complex: 20 mM HEPES-KOH pH 7.5, 250 mM KCl, 1 mM DTT, crystals at 20 C; details: protein: recombinant; tags: His6-MBP-TEV tag removed by TEV protease; sgRNA strand 1; TS/NTS duplex with internal mismatched region; 18 nt guide-TS complementarity; both DNA strands cleaved in structure

| Binder | binding result (SpCas9 wild type [1]) | binding result (SpCas9 wild type [2]) |
| --- | --- | --- |
| B1 | binds | – |
| B2 | – | binds |
